Among the data in publication PMC9404468 are EC50 values, retold here.

Experiment [1] concerns the target thyroid hormone receptor beta (TRb), His-tagged, from pETSUMO-TRb (UniProt P10828). In words: peptide or protein array.
In experiment [2] the target is human Hsp90a (heat shock protein 90 alpha), purified full-length (human) (UniProt P07900). The experiment is described as follows: peptide or protein array.

As to “human Hsp90a (heat shock protein 90 alpha), purified full-length (from UniProt P07900 1-732) (natural protein)”, the EC50 (in general, the concentration that produces a half-maximal response) in experiment [1] was determined as 0.124 µM.

Substance “thyroid hormone receptor beta (TRb), His-tagged, from pETSUMO-TRb (from UniProt P10828 1-461)” had an EC50 in experiment [2] of 1.24 µM.
